Test results published in patent US20260242515A1 (DUALITY BIOLOGICS SHANGHAI, published 2026).
Substitutions are numbered along the chain they refer to.

B1: Ab15 (antibody, human IgG1, kappa, V domains shown)
VH: QVQLQQPGAELKKPGASVKVSCKASGFTFPLYWMNWVRQRPGRGLEWIGRIIPIFGHTKYNEKFKDRATMTADESSSTAYMELSSLTSEDSAVYYCARGGYYYYPREGFLDYWGQGTSVTVSS
VL: DIVMTQSPDSLSVSPGERATINCRSSQSVDYSGDSYMNWYQQKPGQSPRLLIYAASDRESGVPDRFSGSGSGTDFTLKISNVEEEDAATYYCQQSREDPFTFGQGTRVEIKR
notes: Humanized anti-ADAM9 IgG1/kappa; also called Ab15-V (variable regions)
B2: Ab16 (antibody, human IgG1, kappa, V domains shown)
VH: B1 VH with A9T, L11V, K12V, V20L, N35H, D66N, R67K, M70L, S84R, E89D
VL: B1 VL with D9A, T20S, N22S, N81R, A88G, R107K, E109D
notes: Humanized anti-ADAM9 IgG1/kappa; also called Ab16-V (variable regions)

Assays:
[1] = target: T1, ADAM9 on human tumor cells (LS174T, HepG2, Calu-3, Colo205) (human, UniProt Q13443 29-819); test: cell-based or functional assay
T1 sequence (looked up): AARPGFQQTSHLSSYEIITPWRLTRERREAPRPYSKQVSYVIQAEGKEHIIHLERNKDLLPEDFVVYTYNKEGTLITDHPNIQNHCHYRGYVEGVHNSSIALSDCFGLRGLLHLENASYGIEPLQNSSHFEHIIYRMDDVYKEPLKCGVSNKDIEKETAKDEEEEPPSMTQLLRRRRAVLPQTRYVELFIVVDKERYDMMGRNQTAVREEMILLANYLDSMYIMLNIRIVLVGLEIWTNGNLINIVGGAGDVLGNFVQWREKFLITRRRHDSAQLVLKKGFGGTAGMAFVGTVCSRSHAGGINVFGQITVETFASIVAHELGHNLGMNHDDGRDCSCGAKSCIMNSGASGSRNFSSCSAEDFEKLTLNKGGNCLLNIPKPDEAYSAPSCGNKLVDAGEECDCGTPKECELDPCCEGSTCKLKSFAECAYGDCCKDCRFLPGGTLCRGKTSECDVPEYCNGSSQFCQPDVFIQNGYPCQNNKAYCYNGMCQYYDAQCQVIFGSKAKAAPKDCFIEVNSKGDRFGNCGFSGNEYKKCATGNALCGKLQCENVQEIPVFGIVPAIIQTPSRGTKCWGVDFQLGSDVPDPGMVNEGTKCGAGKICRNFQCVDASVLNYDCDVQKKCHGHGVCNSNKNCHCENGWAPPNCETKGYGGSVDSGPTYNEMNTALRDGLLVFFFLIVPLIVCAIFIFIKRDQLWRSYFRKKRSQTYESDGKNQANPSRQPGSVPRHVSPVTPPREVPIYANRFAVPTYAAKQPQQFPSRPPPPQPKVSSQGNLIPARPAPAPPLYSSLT

[2] = target: T2, Human ADAM9 protein (ACROBiosystems, Cat. No. AD9-H52H7) (human, UniProt Q13443 29-697); test: SPR (Biacore 8K), antibody captured by anti-human Fc on CM5, ADAM9 as analyte
T2 construct: Bought protein; also called Human ADAM-His protein; human ADAM9 antigen; not shown: His tag
T2 sequence (looked up): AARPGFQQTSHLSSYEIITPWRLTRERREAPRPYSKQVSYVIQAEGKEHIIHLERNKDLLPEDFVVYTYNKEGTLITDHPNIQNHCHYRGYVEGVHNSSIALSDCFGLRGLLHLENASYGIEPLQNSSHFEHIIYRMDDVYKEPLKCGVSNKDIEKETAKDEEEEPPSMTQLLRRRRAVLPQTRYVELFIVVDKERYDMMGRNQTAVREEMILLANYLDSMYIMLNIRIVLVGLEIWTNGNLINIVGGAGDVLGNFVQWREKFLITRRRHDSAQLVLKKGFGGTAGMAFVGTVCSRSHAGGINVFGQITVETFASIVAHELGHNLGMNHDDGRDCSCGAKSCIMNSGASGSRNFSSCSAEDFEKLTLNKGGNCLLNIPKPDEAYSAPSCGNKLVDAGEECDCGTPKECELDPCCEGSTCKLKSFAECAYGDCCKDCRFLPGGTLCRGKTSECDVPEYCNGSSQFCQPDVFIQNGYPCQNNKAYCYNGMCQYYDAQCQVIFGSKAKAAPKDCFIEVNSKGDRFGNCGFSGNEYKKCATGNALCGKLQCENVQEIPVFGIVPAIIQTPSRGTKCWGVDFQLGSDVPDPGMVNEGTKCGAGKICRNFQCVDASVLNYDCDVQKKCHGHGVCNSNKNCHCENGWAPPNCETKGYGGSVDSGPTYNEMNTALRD
Experimental: Chip preparation: The mouse anti-human IgG (Fc) antibody (Cat. No. 29234600, Cytiva) was diluted to 25 μg/mL in immobilization buffer (10 mM sodium acetate, pH 5.0), specifically by adding 950 μL of the immobilization buffer to 50 μL of the mouse anti-human IgG (Fc) antibody. The dilution was used for immobilization in eight channels. First, the surface of the CM5 chip was activated with 400 mM EDC and 100 mM NHS at a flow rate of 10 μL/min for 420 seconds. Then, 25 μg/mL of the mouse anti-human IgG (Fc) antibody was injected into the test channels at a flow rate of 10 μL/min for approximately 360 seconds, with the level of immobilization at approximately 7000 to 14000 RU. Finally, the chip was blocked with 1 M ethanolamine at a flow rate of 10 μL/min for 420 seconds. The reference channels underwent the same procedures as the test channels.
Ligand capture: Antibodies Ab10, Ab15, Ab16, and hMAB-A (2I.2) were diluted to 4 μg/mL in running buffer (containing 10 mM N-(2-hydroxyethyl)piperazine-N-2-ethanesulfonic acid (HEPES), 150 mM sodium chloride (NaCl), 3 mM ethylenediaminetetraacetic acid (EDTA), 0.005% Tween-20, pH adjusted to 7.4) and injected into the test channels for human IgG (Fc) capture at a flow rate of 10 μL/min at approximately 200 RU. No ligand capture was performed in the reference channels.
Analyte multi-cycle analysis: Human and cynomolgus ADAM9 proteins (human ADAM9 protein purchased from ACRO, Cat. No. AD9-H52H7; monkey ADAM9 protein purchased from ACRO, Cat. No. AD9-C52H7) were diluted 2-fold in running buffer (Table 10). The diluted human or cynomolgus ADAM9 protein was sequentially injected into the test channels and the reference channels at a flow rate of 30 μL/min, with corresponding association and dissociation times. Both the association and dissociation steps were performed in the running buffer. After each concentration analysis, the chip was regenerated with 3 M magnesium chloride at a flow rate of 20 μL/min for 30 seconds to wash away the ligand and any undissociated analyte. For the next concentration analysis, the test channels required re-capture of the same amount of ligand.

Binder	EC50 for internalization [1] [nM]	Maximum internalization rate (%) [1] [%]	Kd [2] [nM]	koff [2] [s⁻¹]	kon [2] [M⁻¹ s⁻¹]
B1	0.17	81.8	4.03	0.000697	173000
B2	0.12	83.3	5.01	0.000816	163000
